Test results taken from the supplement of paper PMC5998384.

What was measured:
HeLa Kyoto [1] = test: solubility in G1/S (NP-40 vs SDS abundance) (log2 ratio); higher = more soluble; details: cell cycle stage: G1/S
HeLa Kyoto [2] = test: solubility change mitosis vs G1/S (difference of NP-40 vs SDS log2 ratios) (log2 ratio difference); higher = more soluble in mitosis
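For solubility change mitosis vs G1/S (difference of NP-40 vs SDS log2 ratios) in this document: synchronized HeLa Kyoto cells (double thymidine block for G1/S, nocodazole release for mitosis), protein amounts in NP-40 versus SDS lysates quantified by mass spectrometry, three biological replicates.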
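For solubility in G1/S (NP-40 vs SDS abundance) in this document: HeLa Kyoto cells arrested at G1/S by double thymidine block, proteins quantified by TMT10plex mass spectrometry in mild NP-40 versus SDS extracts, three biological replicates.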

Chain of COL4A1 (chain, as listed by the source): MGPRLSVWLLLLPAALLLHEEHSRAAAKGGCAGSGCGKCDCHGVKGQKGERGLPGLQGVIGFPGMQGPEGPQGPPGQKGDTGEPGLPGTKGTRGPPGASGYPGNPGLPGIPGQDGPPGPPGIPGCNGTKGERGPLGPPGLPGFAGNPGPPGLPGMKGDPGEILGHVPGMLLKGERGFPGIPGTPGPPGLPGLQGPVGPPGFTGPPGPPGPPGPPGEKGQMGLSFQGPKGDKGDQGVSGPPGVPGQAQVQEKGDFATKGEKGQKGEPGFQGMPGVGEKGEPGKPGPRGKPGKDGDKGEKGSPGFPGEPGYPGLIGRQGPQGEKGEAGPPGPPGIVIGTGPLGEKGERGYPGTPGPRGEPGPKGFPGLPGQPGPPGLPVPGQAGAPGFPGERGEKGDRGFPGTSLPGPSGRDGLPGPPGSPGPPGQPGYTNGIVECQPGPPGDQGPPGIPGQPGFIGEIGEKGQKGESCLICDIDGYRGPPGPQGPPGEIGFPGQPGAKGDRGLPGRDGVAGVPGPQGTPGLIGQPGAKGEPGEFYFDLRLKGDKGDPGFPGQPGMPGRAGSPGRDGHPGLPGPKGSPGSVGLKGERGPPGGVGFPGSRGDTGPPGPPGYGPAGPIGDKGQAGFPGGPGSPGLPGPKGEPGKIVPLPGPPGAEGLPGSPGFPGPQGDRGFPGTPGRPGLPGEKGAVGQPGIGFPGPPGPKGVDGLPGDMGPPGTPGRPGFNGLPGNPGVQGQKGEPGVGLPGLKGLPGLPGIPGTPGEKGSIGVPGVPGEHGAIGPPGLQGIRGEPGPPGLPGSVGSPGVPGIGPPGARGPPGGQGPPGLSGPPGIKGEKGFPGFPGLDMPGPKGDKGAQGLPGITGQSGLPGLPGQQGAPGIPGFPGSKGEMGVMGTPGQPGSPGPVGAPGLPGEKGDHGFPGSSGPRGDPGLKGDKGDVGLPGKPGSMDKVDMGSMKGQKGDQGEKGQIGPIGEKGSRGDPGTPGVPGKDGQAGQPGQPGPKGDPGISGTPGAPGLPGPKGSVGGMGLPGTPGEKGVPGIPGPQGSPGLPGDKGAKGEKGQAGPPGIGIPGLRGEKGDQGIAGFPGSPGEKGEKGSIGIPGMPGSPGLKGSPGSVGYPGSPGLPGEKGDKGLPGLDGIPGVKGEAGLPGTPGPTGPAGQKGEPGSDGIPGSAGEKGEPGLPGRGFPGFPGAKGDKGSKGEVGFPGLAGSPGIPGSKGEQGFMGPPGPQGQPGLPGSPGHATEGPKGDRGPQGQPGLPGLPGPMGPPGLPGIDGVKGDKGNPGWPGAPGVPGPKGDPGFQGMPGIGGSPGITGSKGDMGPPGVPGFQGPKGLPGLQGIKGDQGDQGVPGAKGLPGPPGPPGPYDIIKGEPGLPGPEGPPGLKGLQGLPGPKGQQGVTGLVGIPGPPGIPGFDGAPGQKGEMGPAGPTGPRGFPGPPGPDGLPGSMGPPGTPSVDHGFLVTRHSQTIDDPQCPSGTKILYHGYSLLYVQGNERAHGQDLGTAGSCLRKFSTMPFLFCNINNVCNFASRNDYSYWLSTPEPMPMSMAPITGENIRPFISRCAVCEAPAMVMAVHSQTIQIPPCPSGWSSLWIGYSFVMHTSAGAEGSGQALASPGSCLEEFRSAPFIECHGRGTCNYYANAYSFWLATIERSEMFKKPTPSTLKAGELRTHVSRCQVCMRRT
Chain of JAG2 (chain, as listed by the source): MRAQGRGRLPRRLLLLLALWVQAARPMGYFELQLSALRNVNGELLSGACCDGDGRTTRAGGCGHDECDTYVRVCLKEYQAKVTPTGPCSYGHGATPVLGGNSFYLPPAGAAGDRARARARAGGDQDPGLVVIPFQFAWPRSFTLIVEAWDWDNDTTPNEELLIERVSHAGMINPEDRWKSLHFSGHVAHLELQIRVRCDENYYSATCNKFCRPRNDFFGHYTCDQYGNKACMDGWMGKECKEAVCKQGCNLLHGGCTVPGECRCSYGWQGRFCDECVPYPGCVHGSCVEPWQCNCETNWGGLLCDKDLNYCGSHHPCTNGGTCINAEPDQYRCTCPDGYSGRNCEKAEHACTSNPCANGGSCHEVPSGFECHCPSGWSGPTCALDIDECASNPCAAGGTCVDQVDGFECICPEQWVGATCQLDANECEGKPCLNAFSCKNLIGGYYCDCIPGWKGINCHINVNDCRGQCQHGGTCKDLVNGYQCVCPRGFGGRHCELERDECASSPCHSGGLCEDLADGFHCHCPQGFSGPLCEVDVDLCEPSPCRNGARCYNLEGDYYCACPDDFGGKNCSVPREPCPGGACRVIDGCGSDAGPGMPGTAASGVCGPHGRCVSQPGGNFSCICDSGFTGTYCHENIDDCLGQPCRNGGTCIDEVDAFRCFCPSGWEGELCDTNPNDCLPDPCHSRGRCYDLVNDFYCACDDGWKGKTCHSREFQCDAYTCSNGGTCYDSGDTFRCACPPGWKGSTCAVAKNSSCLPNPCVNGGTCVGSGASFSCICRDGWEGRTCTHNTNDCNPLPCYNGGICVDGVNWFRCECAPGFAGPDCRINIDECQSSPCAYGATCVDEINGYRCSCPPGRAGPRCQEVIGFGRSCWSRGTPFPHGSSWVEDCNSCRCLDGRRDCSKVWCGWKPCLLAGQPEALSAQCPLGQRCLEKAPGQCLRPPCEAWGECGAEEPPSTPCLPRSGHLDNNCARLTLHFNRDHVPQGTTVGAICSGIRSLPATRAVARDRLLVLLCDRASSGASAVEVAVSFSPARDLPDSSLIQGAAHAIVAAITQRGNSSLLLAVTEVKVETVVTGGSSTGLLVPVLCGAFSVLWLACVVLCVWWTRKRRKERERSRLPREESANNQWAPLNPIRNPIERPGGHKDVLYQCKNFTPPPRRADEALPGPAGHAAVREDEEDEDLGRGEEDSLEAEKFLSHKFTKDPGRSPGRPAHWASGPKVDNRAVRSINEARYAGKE
Chain of IFT140 (chain, as listed by the source): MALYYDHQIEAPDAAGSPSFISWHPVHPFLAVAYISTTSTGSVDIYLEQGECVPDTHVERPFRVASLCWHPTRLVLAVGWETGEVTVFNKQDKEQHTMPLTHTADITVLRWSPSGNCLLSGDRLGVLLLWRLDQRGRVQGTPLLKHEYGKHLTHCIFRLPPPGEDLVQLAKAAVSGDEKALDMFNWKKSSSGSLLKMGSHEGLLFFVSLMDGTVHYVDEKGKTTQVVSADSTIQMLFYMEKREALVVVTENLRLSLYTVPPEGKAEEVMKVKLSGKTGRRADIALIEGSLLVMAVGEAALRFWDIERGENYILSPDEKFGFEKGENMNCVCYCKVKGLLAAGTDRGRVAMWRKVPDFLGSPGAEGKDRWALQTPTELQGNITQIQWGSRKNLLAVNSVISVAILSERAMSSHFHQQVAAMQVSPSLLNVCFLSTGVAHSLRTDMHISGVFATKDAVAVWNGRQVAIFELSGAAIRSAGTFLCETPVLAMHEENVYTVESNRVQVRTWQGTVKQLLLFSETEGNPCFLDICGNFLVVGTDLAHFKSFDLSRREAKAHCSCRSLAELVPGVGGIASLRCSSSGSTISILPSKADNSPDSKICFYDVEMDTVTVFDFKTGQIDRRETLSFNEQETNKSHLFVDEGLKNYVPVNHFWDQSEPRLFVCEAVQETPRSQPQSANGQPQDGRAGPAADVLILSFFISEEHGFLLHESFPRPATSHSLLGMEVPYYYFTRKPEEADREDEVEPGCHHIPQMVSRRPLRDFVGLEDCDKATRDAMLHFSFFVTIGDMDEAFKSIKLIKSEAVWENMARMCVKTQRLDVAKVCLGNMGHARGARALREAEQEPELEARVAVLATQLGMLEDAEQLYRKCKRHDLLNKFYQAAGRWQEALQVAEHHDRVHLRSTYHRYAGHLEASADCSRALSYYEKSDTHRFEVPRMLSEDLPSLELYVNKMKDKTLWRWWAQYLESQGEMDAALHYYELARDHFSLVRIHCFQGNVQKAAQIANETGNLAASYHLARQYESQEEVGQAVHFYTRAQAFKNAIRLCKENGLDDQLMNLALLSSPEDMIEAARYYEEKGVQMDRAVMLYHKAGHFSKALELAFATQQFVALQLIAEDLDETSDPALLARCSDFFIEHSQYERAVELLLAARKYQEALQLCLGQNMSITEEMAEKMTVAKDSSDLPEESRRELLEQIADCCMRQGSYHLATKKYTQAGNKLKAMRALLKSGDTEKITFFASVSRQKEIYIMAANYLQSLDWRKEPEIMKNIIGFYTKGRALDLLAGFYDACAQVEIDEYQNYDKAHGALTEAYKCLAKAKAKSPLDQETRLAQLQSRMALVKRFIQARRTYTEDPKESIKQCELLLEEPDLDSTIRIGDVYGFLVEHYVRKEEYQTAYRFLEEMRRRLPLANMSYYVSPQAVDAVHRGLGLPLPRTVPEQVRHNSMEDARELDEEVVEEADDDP
Chain of DNLZ (chain, as listed by the source): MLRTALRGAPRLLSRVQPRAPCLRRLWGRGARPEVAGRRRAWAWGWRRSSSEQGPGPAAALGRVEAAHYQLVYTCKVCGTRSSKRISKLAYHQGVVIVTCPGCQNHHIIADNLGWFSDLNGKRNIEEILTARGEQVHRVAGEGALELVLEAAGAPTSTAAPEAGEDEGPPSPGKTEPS
Chain of KLF4 (chain, as listed by the source): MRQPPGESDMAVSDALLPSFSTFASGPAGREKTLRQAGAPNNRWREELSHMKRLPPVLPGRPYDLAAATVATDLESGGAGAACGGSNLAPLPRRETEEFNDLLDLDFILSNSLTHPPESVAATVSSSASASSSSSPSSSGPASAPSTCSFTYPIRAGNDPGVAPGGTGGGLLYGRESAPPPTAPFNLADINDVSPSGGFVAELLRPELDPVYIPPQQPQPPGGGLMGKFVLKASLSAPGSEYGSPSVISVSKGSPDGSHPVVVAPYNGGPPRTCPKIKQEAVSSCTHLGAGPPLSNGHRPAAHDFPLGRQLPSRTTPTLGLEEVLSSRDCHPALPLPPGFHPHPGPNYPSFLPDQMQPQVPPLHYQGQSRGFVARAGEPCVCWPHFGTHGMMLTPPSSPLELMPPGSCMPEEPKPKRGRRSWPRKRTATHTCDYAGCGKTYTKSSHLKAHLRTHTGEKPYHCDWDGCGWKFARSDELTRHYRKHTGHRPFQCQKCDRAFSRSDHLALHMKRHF

Substance | solubility in G1/S (log2) (HeLa Kyoto [1]) | solubility change mitosis (log2) (HeLa Kyoto [2])
CENPE | -0.0612 | -0.1
CEP295 | 0.074 | -0.138
CHD2 | -1.9 | 0.389
CHD7 | -0.18 | 0.0296
COL4A1 | -0.0938 | 0.225
CROCC | 0.091 | -0.109
DGKZ | 0.0613 | 0.323
DNLZ | -0.145 | 0.242
HECTD4 | -0.212 | 0.00851
HOXC10 | 0.535 | -0.0635
IFT140 | -0.373 | 0.0597
JAG2 | -0.54 | 0.351
KCT2 | 0.0557 | -0.29
KLF4 | -0.0723 | 0.0866
KLF16 | 0.106 | 0.0196
MAAAADSFSGGPAGVRLPRSPPLKVLAEQLRRDAEGGPGAWRLSRAAAGRGPLDLAAVWMQGRVVMADRGEARLRDPSGDFSVRGLERVPRGRPCLVPGKYVMVMGVVQACSPEPCLQAVKMTDLSDNPIHESMWELEVEDLHRNIP [RMI2] | 0.374 | 0.168
MAAAATAAEGVPSRGPPGEVIHLNVGGKRFSTSRQTLTWIPDSFFSSLLSGRISTLKDETGAIFIDRDPTVFAPILNFLRTKELDPRGVHGSSLLHEAQFYGLTPLVRRLQLREELDRSSCGNVLFNGYLPPPVFPVKRRNRHSLVGPQQLGGRPAPVRRSNTMPPNLGNAGLLGRMLDEKTPPSPSGQPEEPGMVRLVCGHHNWIAVAYTQFLVCYRLKEASGWQLVFSSPRLDWPIERLALTARVHGGALGEHDKMVAAATGSEILLWALQAEGGGSEIGVFHLGVPVEALFFVGNQLIATSHTGRIGVWNAVTKHWQVQEVQPITSYDAAGSFLLLGCNNGSIYYVDVQKFPLRMKDNDLLVSELYRDPAEDGVTALSVYLTPKTSDSGNWIEIAYGTSSGGVRVIVQHPETVGSGPQLFQTFTVHRSPVTKIMLSEKHLISVCADNNHVRTWSVTRFRGMISTQPGSTPLASFKILALESADGHGGCSAGNDIGPYGERDDQQVFIQKVVPSASQLFVRLSSTGQRVCSVRSVDGSPTTAFTVLECEGSRRLGSRPRRYLLTGQANGSLAMWDLTTAMDGLGQAPAGGLTEQELMEQLEHCELAPPAPSAPSWGCLPSPSPRISLTSLHSASSNTSLSGHRGSPSPPQAEARRRGGGSFVERCQELVRSGPDLRRPPTPAPWPSSGLGTPLTPPKMKLNETSF [SHKBP1] | -0.0414 | -0.00881
MAAAEEGCSVGAEADRELEELLESALDDFDKAKPSPAPPSTTTAPDASGPQKRSPGDTAKDALFASQEKFFQELFDSELASQATAEFEKAMKELAEEEPHLVEQFQKLSEAAGRVGSDMTSQQEFTSCLKETLSGLAKNATDLQNSSMSEEELTKAMEGLGMDEGDGEGNILPIMQSIMQNLLSKDVLYPSLKEITEKYPEWLQSHRESLPPEQFEKYQEQHSVMCKICEQFEAETPTDSETTQKARFEMVLDLMQQLQDLGHPPKELAGEMPPGLNFDLDALNLSGPPGASGEQCLIM [PEX19] | -0.302 | 0.402
MAAAFRKAAKSRQREHRERSQPGFRKHLGLLEKKKDYKLRADDYRKKQEYLKALRKKALEKNPDEFYYKMTRVKLQDGVHIIKETKEEVTPEQLKLMRTQDVKYIEMKRVAEAKKIERLKSELHLLDFQGKQQNKHVFFFDTKKEVEQFDVATHLQTAPELVDRVFNRPRIETLQKEKVKGVTNQTGLKRIAKERQKQYNCLTQRIEREKKLFVIAQKIQTRKDLMDKTQKVKVKKETVNSPAIYKFQSRRKR [UTP11L] | -2.71 | 1.5
MAAAKPTLTDSLSFCLAQLAAAAGEALGGEKDPATNETPLSRALLALRTRHIKAAGGIERFRARGGLRPLLALLRRAAAAGSAPSQAGPGSAPSSAASGASSPAPASGPAPSAVSSSSPTPPVRLRKTLDLALSILADCCTEGACRTEVRRLGGILPLVTILQCMKTDSIQNRTARALGNLAMEPESCGDIHCAGAVPLLVESLTACQDSQCLQSVVRALRNLADSPQHRLALAQQGAVRPLAELLATAPDAALTLALVRALLELSRGCSRACAEQLSLGGGLGPLVSLASHPKRAVREGTILILANLCAQGLIRPALGNAGGVEVLVDELRQRRDPNGASPTSQQPLVRAVCLLCREAINRARLRDAGGLDLLMGLLRDPRASAWHPRIVAALVGFLYDTGALGRLQALGLVPLLAGQLCGEAGEEEEEGREAASWDFPEERTPERAQGGSFRSLRSWLISEGYATGPDDISPDWSPEQCPPEPMEPASPAPTPTSLRAPRTQRTPGRSPAAAIEEPWGREGPALLLLSRFSQAPDPSGALVTGPALYGLLTYVTGAPGPPSPRALRILSRLTCNPACLEAFVRSYGAALLRAWLVLGVAPDDWPAPRARPTLHSRHRELGERLLQNLTVQAESPFGVGALTHLLLSGSPEDRVACALTLPFICRKPSLWRRLLLEQGGLRLLLAALTRPAPHPLFLFFAADSLSCLQDLVSPTVSPAVPQAVPMDLDSPSPCLYEPLLGPAPVPAPDLHFLLDSGLQLPAQRAASATASPFFRALLSGSFAEAQMDLVPLRGLSPGAAWPVLHHLHGCRGCGAALGPVPPPGQPLLGSEAEEALEAAGRFLLPGLEEELEEAVGRIHLGPQGGPESVGEVFRLGRPRLAAHCARWTLGSEQCPRKRGLALVGLVEAAGEEAGPLTEALLAVVMGIELGARVPA [ARMC5] | 0.0745 | 0.0453
MAAEEADVDIEGDVVAAAGAQPGSGENTASVLQKDHYLDSSWRTENGLIPWTLDNTISEENRAVIEKMLLEEEYYLSKKSQPEKVWLDQKEDDKKYMKSLQKTAKIMVHSPTKPASYSVKWTIEEKELFEQGLAKFGRRWTKISKLIGSRTVLQVKSYARQYFKNKVKCGLDKETPNQKTGHNLQVKNEDKGTKAWTPSCLRGRADPNLNAVKIEKLSDDEEVDITDEVDELSSQTPQKNSSSDLLLDFPNSKMHETNQGEFITSDSQEALFSKSSRGCLQNEKQDETLSSSEITLWTEKQSNGDKKSIELNDQKFNELIKNCNKHDGRGIIVDARQLPSPEPCEIQKNLNDNEMLFHSCQMVEESHEEEELKPPEQEIEIDRNIIQEEEKQAIPEFFEGRQAKTPERYLKIRNYILDQWEICKPKYLNKTSVRPGLKNCGDVNCIGRIHTYLELIGAINFGCEQAVYNRPQTVDKVRIRDRKDAVEAYQLAQRLQSMRTRRRRVRDPWGNWCDAKDLEGQTFEHLSAEELAKRREEEKGRPVKSLKVPRPTKSSFDPFQLIPCNFFSEEKQEPFQVKVASEALLIMDLHAHVSMAEVIGLLGGRYSEVDKVVEVCAAEPCNSLSTGLQCEMDPVSQTQASETLAVRGFSVIGWYHSHPAFDPNPSLRDIDTQAKYQSYFSRGGAKFIGMIVSPYNRNNPLPYSQITCLVISEEISPDGSYRLPYKFEVQQMLEEPQWGLVFEKTRWIIEKYRLSHSSVPMDKIFRRDSDLTCLQKLLECMRKTLSKVTNCFMAEEFLTEIENLFLSNYKSNQENGVTEENCTKELLM [MYSM1] | -0.108 | -0.109
MAAENSKQFWKRSAKLPGSIQPVYGAQHPPLDPRLTKNFIKERSKVNTVPLKNKKASSFHEFARNTSDAWDIGDDEEEDFSSPSFQTLNSKVALATAAQVLENHSKLRVKPERSQSTTSDVPANYKVIKSSSDAQLSRNSSDTCLRNPLHKQQSLPLRPIIPLVARISDQNASGAPPMTVREKTRLEKFRQLLSSQNTDLDELRKCSWPGVPREVRPITWRLLSGYLPANTERRKLTLQRKREEYFGFIEQYYDSRNEEHHQDTYRQIHIDIPRTNPLIPLFQQPLVQEIFERILFIWAIRHPASGYVQGINDLVTPFFVVFLSEYVEEDVENFDVTNLSQDMLRSIEADSFWCMSKLLDGIQDNYTFAQPGIQKKVKALEELVSRIDEQVHNHFRRYEVEYLQFAFRWMNNLLMRELPLRCTIRLWDTYQSEPEGFSHFHLYVCAAFLIKWRKEILDEEDFQGLLMLLQNLPTIHWGNEEIGLLLAEAYRLKYMFADAPNHYRR [TBC1D22B] | -0.183 | -0.0568
MAAFGRQVLDWHRLIPLTWACMARQTPHLGEQRRTTASLLRKLTTASNGGVIEELSCVRSNNYVQEPECRRNLVQCLLEKQGTPVVQGSLELERVMSSLLDMGFSNAHINELLSVRRGASLQQLLDIISEFILLGLNPEPVCVVLKKSPQLLKLPIMQMRKRSSYLQKLGLGEGKLKRVLYCCPEIFTMRQQDINDTVRLLKEKCLFTVQQVTKILHSCPSVLREDLGQLEYKFQYAYFRMGIKHPDIVKSEYLQYSLTKIKQRHIYLERLGRYQTPDKKGQTQIPNPLLKDILRVSEAEFLARTACTSVEEFQVFKKLLAREEEESESSTSDDKRASLDEDEDDDDEEDNDEDDNDEDDDDEDDDEAEDNDEDEDDDEEE [MTERF4] | 0.434 | -0.0189
MAAIAASEVLVDSAEEGSLAAAAELAAQKREQRLRKFRELHLMRNEARKLNHQEVVEEDKRLKLPANWEAKKARLEWELKEEEKKKECAARGEDYEKVKLLEISAEDAERWERKKKRKNPDLGFSDYAAAQLRQYHRLTKQIKPDMETYERLREKHGEEFFPTSNSLLHGTHVPSTEEIDRMVIDLEKQIEKRDKYSRRRPYNDDADIDYINERNAKFNKKAERFYGKYTAEIKQNLERGTAV [SYF2] | 0.12 | 0.188
MAALKEDRSYGLSCGRVSDGSKVSVFHVKLTDSALRAFESYRARQDSVSLRPSIRFQGSQGHISIPQPDCPAEARTFSFYLSNIGRDNPQGSFDCIQQYVSSHGEVHLDCLGSIQDKITVCATDDSYQKARQSMAQAEEETRSRSAIVIKAGGRYLGKKVQFRKPAPGATDAVPSRKRATPINLASAIRKSGASAVSGGSGVSQRPFRDRVLHLLALRPYRKAELLLRLQKDGLTQADKDALDGLLQQVANMSAKDGTCTLQDCMYKDVQKDWPGYSEGDQQLLKRVLVRKLCQPQSTGSLLGDPAASSPPGERGRSASPPQKRLQPPDFIDPLANKKPRISHFTQRAQPAVNGKLGVPNGREALLPTPGPPASTDTLSSSTHLPPRLEPPRAHDPLADVSNDLGHSGRDCEHGEAAAPAPTVRLGLPLLTDCAQPSRPHGSPSRSKPKKKSKKHKDKERAAEDKPRAQLPDCAPATHATPGAPADTPGLNGTCSVSSVPTSTSETPDYLLKYAAISSSEQRQSYKNDFNAEYSEYRDLHARIERITRRFTQLDAQLRQLSQGSEEYETTRGQILQEYRKIKKTNTNYSQEKHRCEYLHSKLAHIKRLIAEYDQRQLQAWP | -0.0524 | 0.218
